Experimental data published in paper PMC6222848, “Spatial Overlap of Claudin- and Phosphatidylinositol Phosphate-Binding Sites on the First PDZ Domain of Zonula Occludens 1 Studied by NMR” (Molecules : A Journal of Synthetic Chemistry and Natural …, 2018).

B1: GST-tagged mouse ZO-1(PDZ1) (residues 18–110) [mouse] / His6-tagged thioredoxin (Trx) fusion protein of mouse CLD-3 C-terminus (Trx-CLD3, residues 210–219) [mouse] (parent)
chain 1: IWEQHTVTLHRAPGFGFGIAISGGRDNPHFQSGETSIVISDVLKGGPAEGQLQENDRVAMVNGVSMDNVEHAFAVQQLRKSGKNAKITIRRKK
chain 2: GTAYDRKDYV

Variants of: B1
Assay: SPR
Conditions: with His6-tagged thioredoxin (Trx) fusion protein of mouse CLD-3 C-terminus (Trx-CLD3, residues 210–219) [mouse], read off a plot
[1] = absence of phytic acid (gray bar), parent: 1.2e+03
[2] = presence of 10 mM phytic acid (InsP6) (black bar), parent: 530

Variant | response [1] [RU] | response [2] [RU]
chain 1 IWEQHTVTLHRAPGFGFGIAISGGRDNPHFQSGETSIVISDVLKGGPAEGQLQENDRVAMVNGVSMDNVEHAFAVQQLRASGKNAKITIRRKK | 1400 | 460
chain 1 IWEQHTVTLHRAPGFGFGIAISGGRDNPHFQSGETSIVISDVLKGGPAEGQLQENDRVAMVNGVSMDNVEHAFAVQQLRKSGANAKITIRRKK | 1300 | 480
chain 1 IWEQHTVTLHAAPGFGFGIAISGGRDNPHFQSGETSIVISDVLKGGPAEGQLQENDRVAMVNGVSMDNVEHAFAVQQLRKSGKNAKITIRRKK | 340 | 78
